# Patent publication US20070207967A1, “Peptide Inhibitors of Matrix Metalloproteinase Activity” (CTT CANCER TARGETING TECHNOLOGIES OY, priority 2004, published 2007)
# T1: MMP-9 C domain (Homo sapiens, UniProt P14780)
# T1 construct: MMP-9 (Asp^494-Asp^688) were expressed as described (16); made in house; host or cells: E. coli (β5 fragment)
# T1 sequence (P14780 513-707 limits assumed): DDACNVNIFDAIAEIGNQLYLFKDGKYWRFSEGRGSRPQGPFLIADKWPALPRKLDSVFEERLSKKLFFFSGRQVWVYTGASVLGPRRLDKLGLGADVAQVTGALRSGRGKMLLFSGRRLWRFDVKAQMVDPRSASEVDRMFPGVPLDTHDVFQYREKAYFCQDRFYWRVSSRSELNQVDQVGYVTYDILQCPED
# B1: β5 I-EGF2+3: integrin β5 I-EGF2+3 fragment (Glu476-Asn563) with N-terminal His6-tag (protein)
# chain: ECQDGENQSVYQNLCREAEGKPLCSGRGDCSCNQCSCFESEFGKIYGPFCECDNFSCARNKGVLCSGHGECHCGECKCHAGYIGDNCN
# modifications: left off: small tags and cut ends
# notes: integrin β5 I-EGF2+3 fragment (Glu476-Asn563) with N-terminal His6-tag
# B2: pro-MMP-9-ΔHC: pro-MMP-9 lacking the hinge region and the C domain (protein)
# chain: APRQRQSTLVLFPGDLRTNLTDRQLAEEYLYRYGYTRVAEMRGESKSLGPALLLLQKQLSLPETGELDSATLKAMRTPRCGVPDLGRFQTFEGDLKWHHHNITYWIQNYSEDLPRAVIDDAFARAFALWSAVTPLTFTRVYSRDADIVIQFGVAEHGDGYPFDGKDGLLAHAFPPGPGIQGDAHFDDDELWSLGKGVVVPTRFGNADGAACHFPFIFEGRSYSACTTDGRSDGLPWCSTTANYDTDDRFGFCPSERLYTQDGNADGKPCQFPFIFQGQSYSACTTDGRSDGYRWCATTANYDRDKLFGFCPTRADSTVMGGNSAGELCVFPFTFLGKEYSTCTSEGRGDGRLWCATTSNFDSDKKWGFCPDQGYSLFLVAAHEFGHALGLDHSSVPEALMYPMYRFTEGPPLHKDDVNGIRHLYG
# B3: CBD: recombinant collagen binding domain of MMP-9 (Gly204-Gly373) (protein)
# chain: GNADGAACHFPFIFEGRSYSACTTDGRSDGLPWCSTTANYDTDDRFGFCPSERLYTQDGNADGKPCQFPFIFQGQSYSACTTDGRSDGYRWCATTANYDRDKLFGFCPTRADSTVMGGNSAGELCVFPFTFLGKEYSTCTSEGRGDGRLWCATTSNFDSDKKWGFCPDQG
# B4: MMP-9 C domain: recombinant C-terminal hemopexin-like domain of MMP-9 (Asp494-Asp688) (protein)
# chain: T1 sequence (P14780 513-707 limits assumed)
# B5: MMP-2 C domain: recombinant C-terminal domain of MMP-2 (Glu438-Cys631) (protein)
# chain: EICKQDIVFDGIAQIRGEIFFFKDRFIWRTVTPRDKPMGPLLVATFWPELPEKIDAVYEAPQEEKAVFFAGNEYWIYSASTLERGYPKPLTSLGLPPDVQRVDAAFNWSKNKKTYIFAGDKFWRYNEVKKKMDPGFPKLIADAWNAIPDNLDAVVDLQGGGHSYFFKGAYYLKLENQSLKSVKFGSIKSDWLGC
# Key:
# [1] = test system: HT1080 fibrosarcoma; assay: HT1080 invasion through matrigel; type: cell-based, human; conditions: 50 μg/ml
# Experimental: Cell migration and invasion. The cell migration assay was conducted using transwell migration chambers (8 μm pore size, Costar) in 10% serum-containing medium (2,14). Briefly, the membranes were coated on both sides with 40 μg/ml GST or with the β2 integrin ligand peptide […]-GST fusion (GST-LLG-C4) and blocked with complete medium. THP-1 cells (50 000/100 μl) were preincubated with the peptides for 1 h in serum-containing medium. The cells were allowed to migrate for 16 h and were then stained with crystal violet and counted (14). The HT1080 (20 000 cells/I100 μl) invasion assay was performed as the THP-1 migration, except that matrigel coated transwells (BD Biosciences) were used.
# [2] = molecular target: T1, MMP-9 C domain; assay: β5 I-EGF2+3 binding assay, MMP-9 C domain
# Experimental: (§1) B5 I-EGF2+3 binding assay. MMP-9 C domain, MMP-2 C domain, CBD, β5 I-EGF2+3 or vitronectin (2 μg/ml) were immobilized in microtiter wells. Biotinylated β5 I-EGF2+3 fragment (2.5 μg/ml) was added to the wells which were preincubated with the competitors for 30 min in 1% BSA-PBST and then incubated further for one hour. Bound biotinylated protein was detected with streptavidin-peroxidase.
# [3] = test system: MMP-9 CBD, vitronectin, β5 I-EGF2+3, C domain of MMP-2; assay: β5 I-EGF2+3 binding assay, other immobilized proteins
# Experimental: as §1
# [4] = test system: β5 integrin-transfected CS-1 melanoma cells; assay: 125I-C domain binding to cells; type: cell-based, hamster; conditions: for Competition of 125I-labelled MMP-9 C domain binding to β5 integrin-transfected CS-1 cells: unlabelled proteins 50 μg/ml, peptides 50 μM
# Experimental: ^125I-C domain binding to cells. The MMP-9 C domain was labelled with ^125I to a specific activity 0.06 μCi/pmol. The labelled domain retained 40% of the CRV peptide-binding activity as shown by the phage-binding assay. […] After a preincubation of 1.5×10^6 cells in a 200 μl volume on ice for 30 min with the competitors, ^125I-labelled C domain (1×10^6 cpm) was added and incubated for three hours on ice. The cells were transferred to tubes containing 200 μl of dibutyl phthalate/cyclohexane mixture (23:2 vol/vol), centrifuged 7500×g for 10 minutes and snap-frozen (24). The bottom of the tube containing the cells were cut and analyzed with a gamma-counter.
# [5] = test system: HT1080 cells; assay: HT1080 cell adhesion to vitronectin or fibronectin; type: cell-based, human; conditions: proteins 40 μg/ml, CRV peptide 200 μM
# Experimental: (§2) Cell adhesion. HT1080 cells were allowed to adhere on vitronectin or fibronectin (2 μg/ml) in the presence or absence of peptides (200 μM), proteins (40 μg/ml) or a monoclonal anti-αvβ5 integrin antibody P1F6 (Chemicon) or a control antibody (25 μg/ml). The adhesion was quantified as described (14). Adhesion of THP-1 cells to immobilized KIM127 or control monoclonal antibodies (2 μg/ml) was done in the presence or absence of soluble proteins (50 μg/ml) or antibodies (25 μg/ml).
# [6] = test system: THP-1 cells; assay: THP-1 cell binding to immobilized KIM127 antibody; type: cell-based, human
# Experimental: as §2
# [7] = test system: THP-1 cells; assay: THP-1 cell binding to antibody R3F9C; type: cell-based, human; conditions: not shown
# Experimental: as §2
Molecule,Inhibition of HT1080 invasion through matrigel by integrin and MMP domains [1],Competition of 125I-labelled MMP-9 C domain binding to β5 integrin-transfected CS-1 cells [4],Inhibition of HT1080 cell adhesion to vitronectin or fibronectin [5],also measured
B1,inhibited HT1080 invasion with a similar potency,competed,,"Competition of biotinylated β5 I-EGF2+3 binding to the MMP-9 C domain [2]: inhibited; Binding of biotinylated β5 I-EGF2+3 to the MMP-9 C domain ([2]; 2.5 μg/ml): specifically bound; Binding of β5 I-EGF2+3 to MMP-9 CBD, vitronectin, itself or the C domain of MMP-2 [3]: did not bind"
B2,,,Neither,
B3,,,,"Effect on THP-1 cell binding to immobilized KIM127 ([6]; proteins 50 μg/ml, antibodies 25 μg/ml): did not"
B4,inhibited HT1080 invasion with a similar potency,competed,Neither,Binding of 125Iodine-labelled MMP-9 C domain to β5 integrin-transfected CS-1 cells ([4]; not to the untransfected cells): specific binding; Inhibition of THP-1 cell binding to KIM127 ([6]; 50 μg/ml): 40%; Effect on THP-1 binding to R3F9C [7]: no effect
B5,inhibited HT1080 invasion with a similar potency,No competition,,
